According to article PMC5385945 (Molecular Biology of the Cell, 2017):

Target: T1, Qc-SNARE Vam7 (wild type, naturally soluble) (S. cerevisiae, UniProt P32912 1-316)
T1 sequence (looked up): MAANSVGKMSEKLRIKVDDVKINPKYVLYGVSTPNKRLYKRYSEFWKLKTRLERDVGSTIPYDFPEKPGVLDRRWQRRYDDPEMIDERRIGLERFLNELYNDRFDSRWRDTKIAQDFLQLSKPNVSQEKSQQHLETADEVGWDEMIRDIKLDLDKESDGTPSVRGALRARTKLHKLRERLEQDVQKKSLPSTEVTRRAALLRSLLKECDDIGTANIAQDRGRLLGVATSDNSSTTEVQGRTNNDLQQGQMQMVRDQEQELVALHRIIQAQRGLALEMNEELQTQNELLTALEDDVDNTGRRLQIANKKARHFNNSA
Assay: co-flotation with proteoliposomes

B1: Rab GTPase Ypt7, GTP-loaded, bound to proteoliposomes (natural protein, S. cerevisiae, UniProt P32939 1-208, looked up)
chain: MSSRKKNILKVIILGDSGVGKTSLMHRYVNDKYSQQYKATIGADFLTKEVTVDGDKVATMQVWDTAGQERFQSLGVAFYRGADCCVLVYDVTNASSFENIKSWRDEFLVHANVNSPETFPFVILGNKIDAEESKKIVSEKSAQELAKSLGDIPLFLTSAKNAINVDTAFEEIARSALQQNQADTEAFEDDYNDAINIRLDGENNSCSC
- binding result: binds
